The values below come from the supplement of paper PMC5998384.

For data set [1], the system named is HeLa Kyoto. The data set is described as follows: melting temperature (median over replicates), in situ; higher = more thermally stable.
Data set [2] has as its system HeLa Kyoto. Description: thermal stability score vs G1/S (z-score of summed log2 fold changes over temperatures); higher = more thermally stable than in G1/S.
The mark [3] stands for this setting: cell cycle stage: early G1 (4.5 h after nocodazole release).
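Throughout, for melting temperature (median over replicates), in situ: HeLa Kyoto cells synchronized by double thymidine or nocodazole block, proteins quantified by TMT10plex mass spectrometry, three independent biological replicates.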
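Throughout, for thermal stability score vs G1/S (z-score of summed log2 fold changes over temperatures): synchronized HeLa Kyoto cells, proteins quantified by TMT10plex mass spectrometry, three biological replicates, mitosis taken 0.5 h after nocodazole release, G1/S directly after double thymidine block.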

Consider “MGSQEVLGHAARLASSGLLLQVLFRLITFVLNAFILRFLSKEIVGVVNVRLTLLYSTTLFLAREAFRRACLSGGTQRDWSQTLNLLWLTVPLGVFWSLFLGWIWLQLLEVPDPNVVPHYATGVVLFGLSAVVELLGEPFWVLAQAHMFVKLKVIAESLSVILKSVLTAFLVLWLPHWGLYIFSLAQLFYTTVLVLCYVIYFTKLLGSPESTKLQTLPVSRITDLLPNITRNGAFINWKEAKLTWSFFKQSFLKQILTEGERYVMTFLNVLNFGDQGVYDIVNNLGSLVARLIFQPIEESFYIFFAKVLERGKDATLQKQEDVAVAAAVLESLLKLALLAGLTITVFGFAYSQLALDIYGGTMLSSGSGPVLLRSYCLYVLLLAINGVTECFTFAAMSKEEVDRYNFVMLALSSSFLVLSYLLTRWCGSVGFILANCFNMGIRITQSLCFIHRYYRRSPHRPLAGLHLSPVLLGTFALSGGVTAVSEVFLCCEQGWPARLAHIAVGAFCLGATLGTAFLTETKLIHFLRTQLGVPRRTDKMT [RFT1]”, for which the melting temperature came to 57.1 °C in the data set on HeLa Kyoto [1] (cell cycle stage: G1/S) and 56.9 °C with HeLa Kyoto [1] (cell cycle stage: mitosis). The thermal stability score in the data set on HeLa Kyoto [2] (setting [3]) was -1.46; with HeLa Kyoto [2] (cell cycle stage: mitosis), -1.12.
For “METDLNSQDRKDLDKFIKFFALKTVQVIVQARLGEKICTRSSSSPTGSDWFNLAIKDIPEVTHEAKKALAGQLPAVGRSMCVEISLKTSEGDSMELEIWCLEMNEKCDKEIKVSYTVYNRLSLLLKSLLAITRVTPAYRLSRKQGHEYVILYRIYFGEVQLSGLGEGFQTVRVGTVGTPVGTITLSCAYRINLAFMSTRQFERTPPIMGIIIDHFVDRPYPSSSPMHPCNYRTAGEDTGVIYPSVEDSQEVCTTSFSTSPPSQLSSSRLSYQPAALGVGSADLAYPVVFAAGLNATHPHQLMVPGKEGGVPLAPNQPVHGTQADQERLATCTPSDRTHCAATPSSSEDTETVSNSSEGRASPHDVLETIFVRKVGAFVNKPINQVTLTSLDIPFAMFAPKNLELEDTDPMVNPPDSPETESPLQGSLHSDGSSGGSSGNTHDDFVMIDFKPAFSKDDILPMDLGTFYREFQNPPQLSSLSIDIGAQSMAEDLDSLPEKLAVHEKNVREFDAFVETLQ [ATG13]”, the melting temperature was 51.7 °C in the data set with HeLa Kyoto [1] (cell cycle stage: G1/S) and 52.2 °C in the data set with HeLa Kyoto [1] (cell cycle stage: mitosis). Further, the thermal stability score with HeLa Kyoto [2] (setting [3]) was 0.178; in the data set on HeLa Kyoto [2] (cell cycle stage: mitosis), -1.05.
The corresponding values for “MSGTRASNDRPPGAGGVKRGRLQQEAAATGSRVTVVLGAQWGDEGKGKVVDLLATDADIISRCQGGNNAGHTVVVDGKEYDFHLLPSGIINTKAVSFIGNGVVIHLPGLFEEAEKNEKKGLKDWEKRLIISDRAHLVFDFHQAVDGLQEVQRQAQEGKNIGTTKKGIGPTYSSKAARTGLRICDLLSDFDEFSSRFKNLAHQHQSMFPTLEIDIEGQLKRLKGFAERIRPMVRDGVYFMYEALHGPPKKILVEGANAALLDIDFGTYPFVTSSNCTVGGVCTGLGIPPQNIGDVYGVVKAYTTRVGIGAFPTEQINEIGGLLQTRGHEWGVTTGRKRRCGWLDLMILRYAHMVNGFTALALTKLDILDVLGEVKVGVSYKLNGKRIPYFPANQEMLQKVEVEYETLPGWKADTTGARRWEDLPPQAQNYIRFVENHVGVAVKWVGVGKSRESMIQLF [ADSSL1]” are 55.3 °C, 55.4 °C, -1.69 and -2.13.
The matching figures for “MLKPALEPRGGFSFENCQRNASLERVLPGLKVPHARKTGTTIAGLVFQDGVILGADTRATNDSVVADKSCEKIHFIAPKIYCCGAGVAADAEMTTRMVASKMELHALSTGREPRVATVTRILRQTLFRYQGHVGASLIVGGVDLTGPQLYGVHPHGSYSRLPFTALGSGQDAALAVLEDRFQPNMTLEAAQGLLVEAVTAGILGDLGSGGNVDACVITKTGAKLLRTLSSPTEPVKRSGRYHFVPGTTAVLTQTVKPLTLELVEETVQAMEVE [PSMB10]”: 53.3 °C, 52.6 °C, 0.227 and 0.56.
The corresponding values for MYH14 are 53.1 °C, 52.2 °C, -0.174 and -1.24.
For the substance “MIKAILIFNNHGKPRLSKFYQPYSEDTQQQIIRETFHLVSKRDENVCNFLEGGLLIGGSDNKLIYRHYATLYFVFCVDSSESELGILDLIQVFVETLDKCFENVCELDLIFHVDKVHNILAEMVMGGMVLETNMNEIVTQIDAQNKLEKSEAGLAGAPARAVSAVKNMNLPEIPRNINIGDISIKVPNLPSFK [AP3S1]”, the melting temperature with HeLa Kyoto [1] (cell cycle stage: G1/S) was 50.8 °C; in the data set with HeLa Kyoto [1] (cell cycle stage: mitosis), 51.2 °C. In addition, the thermal stability score in the data set with HeLa Kyoto [2] (setting [3]) is -0.187; in the data set with HeLa Kyoto [2] (cell cycle stage: mitosis), -0.378.
On to “MGRSRSRSPRRERRRSRSTSRERERRRRERSRSRERDRRRSRSRSPHRRRSRSPRRHRSTSPSPSRLKERRDEEKKETKETKSKERQITEEDLEGKTEEEIEMMKLMGFASFDSTKGKKVDGSVNAYAINVSQKRKYRQYMNRKGGFNRPLDFIA [SNRNP27]”, for which the melting temperature in the data set on HeLa Kyoto [1] (cell cycle stage: G1/S) worked out at 54 °C; with HeLa Kyoto [1] (cell cycle stage: mitosis), 53.3 °C. For the same substance, the thermal stability score in the data set on HeLa Kyoto [2] (setting [3]) came to 1.03; in the data set with HeLa Kyoto [2] (cell cycle stage: mitosis) it was 0.903.
The substance “MGVNAVHWFRKGLRLHDNPALKECIQGADTIRCVYILDPWFAGSSNVGINRWRFLLQCLEDLDANLRKLNSRLFVIRGQPADVFPRLFKEWNITKLSIEYDSEPFGKERDAAIKKLATEAGVEVIVRISHTLYDLDKIIELNGGQPPLTYKRFQTLISKMEPLEIPVETITSEVIEKCTTPLSDDHDEKYGVPSLEELGFDTDGLSSAVWPGGETEALTRLERHLERKAWVANFERPRMNANSLLASPTGLSPYLRFGCLSCRLFYFKLTDLYKKVKKNSSPPLSLYGQLLWREFFYTAATNNPRFDKMEGNPICVQIPWDKNPEALAKWAEGRTGFPWIDAIMTQLRQEGWIHHLARHAVACFLTRGDLWISWEEGMKVFEELLLDADWSINAGSWMWLSCSSFFQQFFHCYCPVGFGRRTDPNGDYIRRYLPVLRGFPAKYIYDPWNAPEGIQKVAKCLIGVNYPKPMVNHAEASRLNIERMKQIYQQLSRYRGLGLLASVPSNPNGNGGFMGYSAENIPGCSSSGSCSQGSGILHYAHGDSQQTHLLKQGRSSMGTGLSGGKRPSQEEDTQSIGPKVQRQSTN [CRY1]” returned a melting temperature in the data set on HeLa Kyoto [1] (cell cycle stage: mitosis) of 52 °C. The thermal stability score was 0.298 in the data set on HeLa Kyoto [2] (setting [3]) and -0.281 in the data set on HeLa Kyoto [2] (cell cycle stage: mitosis).
“MSGGRAPAVLLGGVASLLLSFVWMPALLPVASRLLLLPRVLLTMASGSPPTQPSPASDSGSGYVPGSVSAAFVTCPNEKVAKEIARAVVEKRLAACVNLIPQITSIYEWKGKIEEDSEVLMMIKTQSSLVPALTDFVRSVHPYEVAEVIALPVEQGNFPYLQWVRQVTESVSDSITVLP [CUTA]”: the values for the melting temperature in the data set with HeLa Kyoto [1] (cell cycle stage: G1/S) and in the data set with HeLa Kyoto [1] (cell cycle stage: mitosis) were 57.7 °C and 54.8 °C, respectively. Further, the thermal stability score in the data set with HeLa Kyoto [2] (setting [3]) was -1.46; in the data set on HeLa Kyoto [2] (cell cycle stage: mitosis) it was -1.38.
With “MANAEVSVPVGDVVVVPTEGNEGENPEDTKTQVILQLQPVQQGLFIDGHFYNRIYEAGSENNTAVVAVETHTIHKIEEGIDTGTIEANEDMEIAYPITCGESKAILLWKKFVCPGINVKCVKFNDQLISPKHFVHLAGKSTLKDWKRAIRLGGIMLRKMMDSGQIDFYQHDKVCSNTCRSTKFDLLISSARAPVPGQQTSVVQTPTSADGSITQIAISEESMEEAGLEWNSALTAAVTMATEEGVKKDSEEISEDTLMFWKGIADVGLMEEVVCNIQKEIEELLRGVQQRLIQAPFQVTDAAVLNNVAHTFGLMDTVKKVLDNRRNQVEQGEEQFLYTLTDLERQLEEQKKQGQDHRLKSQTVQNVVLMPVSTPKPPKRPRLQRPASTTVLSPSPPVQQPQFTVISPITITPVGQSFSMGNIPVATLSQGSSPVTVHTLPSGPQLFRYATVVSSAKSSSPDTVTIHPSSSLALLSSTAMQDGSTLGNMTTMVSPVELVAMESGLTSAIQAVESTSEDGQTIIEIDPAPDPEAEDTEGKAVILETELRTEEKVVAEMEEHQHQVHNVEIVVLED [GMEB1]”, in the data set on HeLa Kyoto [1] (cell cycle stage: G1/S), the melting temperature came to 49 °C. Moreover, the results for the thermal stability score in the data set on HeLa Kyoto [2] (setting [3]) and with HeLa Kyoto [2] (cell cycle stage: mitosis) were 0.789 and 2.68, respectively.
With “MEAVVNLYQEVMKHADPRIQGYPLMGSPLLMTSILLTYVYFVLSLGPRIMANRKPFQLRGFMIVYNFSLVALSLYIVYEFLMSGWLSTYTWRCDPVDYSNSPEALRMVRVAWLFLFSKFIELMDTVIFILRKKDGQVTFLHVFHHSVLPWSWWWGVKIAPGGMGSFHAMINSSVHVIMYLYYGLSAFGPVAQPYLWWKKHMTAIQLIQFVLVSLHISQYYFMSSCNYQYPVIIHLIWMYGTIFFMLFSNFWYHSYTKGKRLPRALQQNGAPGIAKVKAN [ELOVL1]”, the melting temperature was 52.8 °C in the data set on HeLa Kyoto [1] (cell cycle stage: G1/S) and 52.4 °C in the data set on HeLa Kyoto [1] (cell cycle stage: mitosis). Also, the results for the thermal stability score in the data set on HeLa Kyoto [2] (setting [3]) and in the data set on HeLa Kyoto [2] (cell cycle stage: mitosis) were 2.04 and 1.9, respectively.
Regarding “MESQKEARTLQEPVARPSGASSSQTPNDKERREGGAVPAAAALGAEADDDSADGLWELPVEPAERRPECTRCSRPQKVCLCPFLPAHPLHISTHLYIIQHPAEENKVLRTVPLLAACLPQDKCKVKIGRRFSEERDPELSTVCRKSGTLILYPGAEAANLEEFILDSPVYPSTIIIIDGTWSQAKDIFYKNSLFRHPKQVQLKTSISSQYVIRMQPTNRCLSTLECAAVALSILEKNNYIQETLLRPLQALCSFQLQHGAQIRLSKEHLLKNGLYPKPMPKNKRKLRKMELLMNSVKI [DTWD2]”, the melting temperature with HeLa Kyoto [1] (cell cycle stage: mitosis) came to 51.2 °C. For the same substance, the values for the thermal stability score with HeLa Kyoto [2] (setting [3]) and in the data set with HeLa Kyoto [2] (cell cycle stage: mitosis) were 0.37 and 0.624, respectively.
